For assay [1], the target named is T1, recombinant human HGF (R&D Systems, Catalog No. 294-HGN-025) (human, UniProt P14210 32-728).
T1 construct: Mature HGF is a disulfide-linked heterodimer of alpha and beta chain cut from one precursor; also called rhHGF (R&D Systems); rhHGF
Briefly: SPR (BIAcore T100), antibody captured on mouse anti-human immunoglobulin CM4 chip, HGF 1.88, 3.75 and 7.5 nM injected, 25 C. On the procedure:
Antigen-binding affinity and kinetics of interaction were assessed by surface plasmon resonance technology using a BIAcore T100 instrument. Mouse anti-human immunoglobulins (Jackson ImmunoResearch Labs, 209-005-098) were immobilized on carboxymethylated dextran CM4 sensor chips (BIAcore, Catalog No. BR-1005-34) by amine coupling (BIAcore, Catalog No. BR-1000-50) using a standard coupling protocol according to manufacturer's recommendations. The analyses were performed at 25° C. using PBS (GIBCO, Catalog No. 14040-133) containing 0.05% surfactant P20 (BIAcore, Catalog No. BR-1000-54), 2 mg/mL BSA (EMD, Catalog No. 2930) and 10 mg/mL CM-Dextran Sodium salt (Fluka, Catalog No. 86524) as running buffer.
The antibodies were captured on individual flow cell at a flow rate of 10 μL/min. Injection time was variable for each antibody to yield approximately 20 RU of antibody captured for each cycle. […] The dissociation phase was monitored for 15 or 90 minutes, depending on concentration. The surface then was regenerated with 10 mM Glycine-HCl, pH 2.0 (BIAcore, Catalog No. BR-1003-55) injected for 3 minutes at a flow rate of 60 μL/min before another cycle was initiated. […] Determination of kinetic parameters was achieved using the kinetic function of the BIAevalutation software with reference subtraction.
A general note: SPR reads the build-up and loss of mass on a sensor chip optically.

Assay [2] concerns the target hHGF-Fc G555E (recombinant hHGF protein containing a glycine to glutamate substitution at position 555) (human). Briefly: SPR, antibody immobilized, HGF protein injected, 25 C. On the procedure:
(§1) Each antibody was immobilized on a carboxymethylated dextran CM5 sensor chip (BIAcore, Catalog No. BR-1006-68) by amine coupling (BIAcore, Catalog No. BR-1000-50) using a standard coupling protocol according to manufacturer's instructions.
(§2) Analyses were performed at 25° C. using PBS (GIBCO, Catalog No. 14040-133) containing 0.05% surfactant P20 (BIAcore, Catalog No. R-1000-54), 2 mg/mL BSA (EMD, Catalog No. 2930) and 10 mg/mL CM-Dextran Sodium salt (Fluka, Catalog No. 86524) as running buffer. […] The resulting binding was determined as resonance units (RU) over baseline 30 seconds after the end of injection. […] Non-specific binding was monitored by comparing binding to a control surface where mouse IgG (Rockland, Catalog No. 010-0102) was immobilized using the same amine coupling procedure.

The target in assay [3] is T2, recombinant mouse HGF (R&D Systems) (mouse, UniProt Q08048 33-728).
T2 construct: Bought protein, construct not described; also called rmHGF (R&D Systems); murine HGF
T2 sequence (Q08048 33-728 limits assumed): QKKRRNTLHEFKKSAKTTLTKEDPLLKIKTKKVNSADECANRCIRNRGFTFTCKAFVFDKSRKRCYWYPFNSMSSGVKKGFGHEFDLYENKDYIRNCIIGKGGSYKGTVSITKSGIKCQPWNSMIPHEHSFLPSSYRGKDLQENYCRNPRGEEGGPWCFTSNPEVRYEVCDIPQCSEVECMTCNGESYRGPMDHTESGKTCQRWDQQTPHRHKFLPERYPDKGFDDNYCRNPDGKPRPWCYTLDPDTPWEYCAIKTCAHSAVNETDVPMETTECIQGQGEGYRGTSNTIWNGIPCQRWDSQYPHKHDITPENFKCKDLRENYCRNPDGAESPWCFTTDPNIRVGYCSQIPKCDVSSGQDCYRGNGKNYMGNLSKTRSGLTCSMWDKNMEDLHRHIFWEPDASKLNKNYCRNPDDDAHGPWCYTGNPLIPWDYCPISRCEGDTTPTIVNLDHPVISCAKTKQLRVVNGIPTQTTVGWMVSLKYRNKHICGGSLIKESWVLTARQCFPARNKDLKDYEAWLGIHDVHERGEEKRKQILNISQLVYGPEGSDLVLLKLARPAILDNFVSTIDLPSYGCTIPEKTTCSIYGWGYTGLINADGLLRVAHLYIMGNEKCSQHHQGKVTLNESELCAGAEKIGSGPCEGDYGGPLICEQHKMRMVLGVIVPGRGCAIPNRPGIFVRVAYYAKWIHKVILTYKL
The assay is described as above. On the procedure: as §1, §2

Assay [4] deals with hHGF-Fc C561R (recombinant hHGF protein containing a cysteine to arginine substitution at position 561) (human). The description is as above. On the procedure:
as §1, §2

The target of assay [5] is T1, recombinant human HGF (R&D Systems, …). Briefly: cell-based or functional assay.
Assay [6] has the same target. Description: cell-based or functional assay. This is another data set of the same source.
For assay [7] the target is unchanged. Description: SPR, antibody captured by anti-mouse Ig, HGF injected, 25 C. On the procedure: Rabbit anti-mouse immunoglobulins (BIAcore, Catalog No. BR-1005-14) were immobilized on carboxymethylated dextran CM5 sensor chips (BIAcore, Catalog No. BR-1006-68) by amine coupling (BIAcore, Catalog No. BR-1000-50) using a standard coupling protocol according to manufacturer's instructions. The analyses were performed at 25° C. using PBS (GIBCO, Catalog No. 14040-133) containing 0.05% surfactant P20 (BIAcore, Catalog No. BR-1000-54), 2 mg/mL BSA (EMD, Catalog No. 2930), and 10 mg/mL CM-Dextran Sodium salt (Fluka, Catalog No. 86524) as running buffer.
The antibodies were captured in an individual flow cell at a flow rate of 10 μL/min. Injection time was variable for each antibody to yield approximately 20 RU of antibody captured for each cycle. […] The dissociation phase was monitored for 15 or 90 minutes, depending on concentration. The surface then was regenerated with 10 mM Glycine-HCl, pH 1.7 (BIAcore, Catalog No. BR-1003-54) injected for 3 minutes at a flow rate of 60 μL/min before another cycle was initiated.
Kinetic parameters were determined using the kinetic function of the BIAevalutation software with reference subtraction.

Assay [8] has the same target. Briefly: competition ELISA (DELFIA): antibody inhibits c-Met binding to plate-coated HGF. How it is done: The plates then were blocked with 200 μL of 5% non-fat dry milk in PBS for 1 hour at room temperature. […] 100 μL of sample per well was transferred to the assay plate and incubated overnight at 4° C.
The resulting plates then were washed three times with PBS-0.1% Tween 20, and incubated for 1 hour at room temperature with Eu-labeled Streptavidin (Wallac, Catalog No. 1244-360) diluted 1:1000 in DELFIA assay buffer (Wallac, Catalog No. 4002-0010). The resulting plates were washed 3 times with DELFIA wash solution (Wallac, Catalog No. 4010-0010) and incubated with 100 μL/well DELFIA enhancement solution (Wallac #4001-0010) for 15 minutes at room temperature with agitation.
The plates were read on Victor³V instrument (Perkin Elmer) using the Europium method.
For orientation: In an ELISA, binding on a coated surface is turned into a signal by an enzyme label.

T1 sequence (P14210 32-728 limits assumed): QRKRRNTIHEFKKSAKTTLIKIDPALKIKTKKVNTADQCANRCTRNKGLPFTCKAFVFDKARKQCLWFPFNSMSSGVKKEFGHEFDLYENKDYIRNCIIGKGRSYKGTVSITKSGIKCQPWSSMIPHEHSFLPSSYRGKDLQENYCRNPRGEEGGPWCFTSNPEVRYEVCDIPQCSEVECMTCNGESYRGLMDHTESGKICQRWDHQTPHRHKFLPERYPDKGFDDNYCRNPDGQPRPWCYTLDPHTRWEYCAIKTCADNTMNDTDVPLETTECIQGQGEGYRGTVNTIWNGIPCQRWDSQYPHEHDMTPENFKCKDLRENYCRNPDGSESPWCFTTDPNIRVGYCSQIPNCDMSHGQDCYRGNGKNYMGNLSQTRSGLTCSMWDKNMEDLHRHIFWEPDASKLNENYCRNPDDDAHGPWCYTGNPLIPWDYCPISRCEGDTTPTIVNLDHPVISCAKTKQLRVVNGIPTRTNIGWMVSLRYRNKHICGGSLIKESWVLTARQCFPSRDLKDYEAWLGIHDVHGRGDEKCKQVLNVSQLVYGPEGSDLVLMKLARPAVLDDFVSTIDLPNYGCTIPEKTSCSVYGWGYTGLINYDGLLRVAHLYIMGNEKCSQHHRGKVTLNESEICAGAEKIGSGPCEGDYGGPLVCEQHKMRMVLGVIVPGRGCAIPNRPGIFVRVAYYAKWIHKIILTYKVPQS
Chain of hHGF-Fc G555E (recombinant hHGF protein containing a glycine to glutamate substitution at position 555) (human) (chain, as listed by the source G555E G555E limits assumed): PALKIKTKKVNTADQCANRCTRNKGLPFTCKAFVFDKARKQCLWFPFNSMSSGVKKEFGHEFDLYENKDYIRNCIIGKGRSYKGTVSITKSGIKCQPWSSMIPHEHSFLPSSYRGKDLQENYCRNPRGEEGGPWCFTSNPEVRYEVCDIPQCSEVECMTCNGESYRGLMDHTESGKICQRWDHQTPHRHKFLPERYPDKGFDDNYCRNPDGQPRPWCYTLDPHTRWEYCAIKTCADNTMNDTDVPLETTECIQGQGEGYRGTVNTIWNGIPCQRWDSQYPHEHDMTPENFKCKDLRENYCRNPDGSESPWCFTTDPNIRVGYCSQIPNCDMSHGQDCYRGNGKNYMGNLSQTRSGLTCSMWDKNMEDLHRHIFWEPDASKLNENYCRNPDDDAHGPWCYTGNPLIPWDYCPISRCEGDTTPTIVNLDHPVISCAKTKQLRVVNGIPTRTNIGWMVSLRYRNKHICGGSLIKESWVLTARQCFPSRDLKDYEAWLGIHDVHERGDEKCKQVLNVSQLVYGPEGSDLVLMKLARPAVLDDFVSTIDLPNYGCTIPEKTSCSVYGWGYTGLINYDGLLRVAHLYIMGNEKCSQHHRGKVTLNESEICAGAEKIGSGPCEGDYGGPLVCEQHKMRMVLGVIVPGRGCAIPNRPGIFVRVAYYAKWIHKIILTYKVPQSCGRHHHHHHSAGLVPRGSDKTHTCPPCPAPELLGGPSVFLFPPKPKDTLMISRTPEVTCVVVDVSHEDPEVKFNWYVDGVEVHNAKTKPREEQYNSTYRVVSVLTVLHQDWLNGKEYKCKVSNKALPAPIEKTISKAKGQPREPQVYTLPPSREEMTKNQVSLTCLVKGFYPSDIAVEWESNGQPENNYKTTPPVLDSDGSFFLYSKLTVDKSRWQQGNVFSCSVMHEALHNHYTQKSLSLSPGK
Chain of hHGF-Fc C561R (recombinant hHGF protein containing a cysteine to arginine substitution at position 561) (human) (chain, as listed by the source C561R C561R limits assumed): as the sequence (chain, as listed by the source G555E G555E limits assumed) above, with E501G, C507R counted along it

B1: chimeric 2B8 (mouse variable regions with human IgG1 (G1m(17,1)) and Kappa (Km(3)) constant regions) (antibody)
heavy: not shown
light: NIVMTQSPKSMSMSVGERVTLSCKASENVVSYVSWYQQKPAQSPKLLIYGASNRNTGVPDRFTGSGSATDFTLTISSVRAEDLADYHCGQSYNYPYTFGGGTRLEIKRTVAAPSVFIFPPSDEQLKSGTASVVCLLNNFYPREAKVQWKVDNALQSGNSQESVTEQDSKDSTYSLSSTLTLSKADYEKHKVYACEVTHQGLSSPVTKSFNRGEC
notes: also called Chimeric 2B8 IgG1; Chimeric 2B8 Kappa (Km(3))
With B1, in assay [1], the koff was found to be 2.7e-05 s⁻¹ and the kon was found to be 2.3e+06 M⁻¹ s⁻¹.

B2: Kappa Hu2B8_Kv3-15.1 / Heavy Chimeric 2B8 (antibody, human IgG1, kappa, V domains shown)
VH: QVQLQQPGAELVKPGTSVKLSCKASGYTFTTYWMHWVNQRPGQGLEWIGEINPTNGHTNYNEKFKSKATLTVDKSSSTAYMQLSSLTSEDSAVYYCARNYVGSIFDYWGQGTTLTVSS
VL: EIVMTQSPATLSVSPGERATLSCKASENVVSYVSWYQQKPGQAPRLLIYGASNRNTGIPARFSGSGSGTEFTLTISSLQSEDFAVYYCGQSYNYPYTFGQGTKLEIKR
notes: also called Chimeric 2B8 IgG1 heavy chain with Hu2B8 Kv3-15.1 + Kappa Constant light chain
In the case of B2, in assay [1], the koff was 1.7e-05 s⁻¹ and the kon was 3.1e+06 M⁻¹ s⁻¹.

B3: Kappa Hu2B8_Kv1-39.1 / Heavy Hu2B8_Hv5-a.1 (antibody, human IgG1, kappa, V domains shown)
VH: EVQLVQSGAEVKKPGESLRISCKGSGYSFTTYWMHWVRQMPGKGLEWMGEINPTNGHTNYNPSFQGHVTISADKSISTAYLQWSSLKASDTAMYYCARNYVGSIFDYWGQGTLVTVSS
VL: DIQMTQSPSSLSASVGDRVTITCKASENVVSYVSWYQQKPGKAPKLLIYGASNRNTGVPSRFSGSGSGTDFTLTISSLQPEDFATYYCGQSYNYPYTFGQGTKLEIKR
notes: also called Hu2B8 Hv5-a.1 + IgG1 Constant heavy chain with Hu2B8 Kv1-39.1 + Kappa Constant light chain
For the molecule B3, in assay [1], the koff amounted to 3.8e-05 s⁻¹ and the kon came out at 2.6e+06 M⁻¹ s⁻¹.

B4: Kappa Chimeric 2B8 / Heavy Hu2B8_Hv5-a.1 (antibody, human IgG1, kappa, V domains shown)
VH: EVQLVQSGAEVKKPGESLRISCKGSGYSFTTYWMHWVRQMPGKGLEWMGEINPTNGHTNYNPSFQGHVTISADKSISTAYLQWSSLKASDTAMYYCARNYVGSIFDYWGQGTLVTVSS
VL: NIVMTQSPKSMSMSVGERVTLSCKASENVVSYVSWYQQKPAQSPKLLIYGASNRNTGVPDRFTGSGSATDFTLTISSVRAEDLADYHCGQSYNYPYTFGGGTRLEIKR
notes: also called Hu2B8 Hv5-a.1 + IgG1 Constant heavy chain with Chimeric 2B8 Kappa light chain
On to B4, for which, in assay [1], the koff turned out to be 1.1e-05 s⁻¹ and the kon came to 2.4e+06 M⁻¹ s⁻¹.

B5: Kappa Hu2B8_Kv1-39.1 / Heavy Chimeric 2B8 (antibody, human IgG1, kappa, V domains shown)
VH: QVQLQQPGAELVKPGTSVKLSCKASGYTFTTYWMHWVNQRPGQGLEWIGEINPTNGHTNYNEKFKSKATLTVDKSSSTAYMQLSSLTSEDSAVYYCARNYVGSIFDYWGQGTTLTVSS
VL: DIQMTQSPSSLSASVGDRVTITCKASENVVSYVSWYQQKPGKAPKLLIYGASNRNTGVPSRFSGSGSGTDFTLTISSLQPEDFATYYCGQSYNYPYTFGQGTKLEIKR
notes: also called Chimeric 2B8 IgG1 heavy chain with Hu2B8 Kv1-39.1 + Kappa Constant light chain
As for B5, in assay [1], the koff was 3.9e-05 s⁻¹ and the kon is 2.8e+06 M⁻¹ s⁻¹.

B6: Kappa Hu2B8_Kv1-39.1 / Heavy Hu2B8_Hv1-f.1 (antibody, human IgG1, kappa, V domains shown)
VH: EVQLVQSGAEVKKPGATVKISCKVSGYTFTTYWMHWVQQAPGKGLEWMGEINPTNGHTNYNEKFQGRVTITADTSTDTAYMELSSLRSEDTAVYYCATNYVGSIFDYWGQGTLVTVSS
VL: DIQMTQSPSSLSASVGDRVTITCKASENVVSYVSWYQQKPGKAPKLLIYGASNRNTGVPSRFSGSGSGTDFTLTISSLQPEDFATYYCGQSYNYPYTFGQGTKLEIKR
notes: also called Hu2B8 Hv1-f.1 + IgG1 Constant heavy chain with Hu2B8 Kv1-39.1 + Kappa Constant light chain
For B6, in assay [1], the koff was 0.0021 s⁻¹ and the kon came out at 7.1e+06 M⁻¹ s⁻¹.

B7: Kappa Hu2B8_Kv3-15.1 / Heavy Hu2B8_Hv5-a.1 (antibody, human IgG1, kappa, V domains shown)
VH: EVQLVQSGAEVKKPGESLRISCKGSGYSFTTYWMHWVRQMPGKGLEWMGEINPTNGHTNYNPSFQGHVTISADKSISTAYLQWSSLKASDTAMYYCARNYVGSIFDYWGQGTLVTVSS
VL: EIVMTQSPATLSVSPGERATLSCKASENVVSYVSWYQQKPGQAPRLLIYGASNRNTGIPARFSGSGSGTEFTLTISSLQSEDFAVYYCGQSYNYPYTFGQGTKLEIKR
notes: also called Hu2B8 Hv5-a.1 + IgG1 Constant heavy chain with Hu2B8 Kv3-15.1 + Kappa Constant light chain
Turning to B7, in assay [1], the koff was 5.9e-05 s⁻¹ and the kon is 2.2e+06 M⁻¹ s⁻¹.

B8: anti-hHGF monoclonal antibody 1D3 (antibody, mouse IgG1, kappa, V domains shown)
VH: EVQLVESGGGLVQPGGSLKLSCAASGFTFSDYYMSWVRQTPEKRLEWVAYISSGGGSTYYPDSVKGRFTISRDNAKNTLYLQMSSLKSEDTAIYYCVRQGDGYYGDYAMDYWGQGTSVIVSS
VL: DIQMTQSPASLSVSVGETVTITCRTSENIYSNLAWYQQKQGKSPQLLIYAATNLADGVPSRFSGSGSGTQFSLRINSLQSEDFGRYYCQHFWGTPYTFGGGTKLEIKR
notes: Murine IgG1 kappa from hybridoma
B8: the binding result in assay [2] is on record as “binds”; in assay [3], “no binding”; in assay [4], “binds”. For the same molecule, in assay [5], the “EC50, inhibition of HGF-stimulated c-Met phosphorylation in PC-3 cells, Average of Two Trials” value is 0.984 nM. Besides, in assay [6], the “IC50, neutralization of HGF stimulated BrdU incorporation in 4 MBr-5 cells” value stood at 4.99 nM. The Kd in assay [7] was determined as 0.0542 nM. Further, in assay [7], the koff was 8.2e-05 s⁻¹. In assay [7], the kon worked out at 1.7e+06 M⁻¹ s⁻¹. Also, the IC50 in assay [8] was found to be 4.43 nM.

B9: Kappa Chimeric 2B8 / Heavy Hu2B8_Hv1-f.1 (antibody, human IgG1, kappa, V domains shown)
VH: EVQLVQSGAEVKKPGATVKISCKVSGYTFTTYWMHWVQQAPGKGLEWMGEINPTNGHTNYNEKFQGRVTITADTSTDTAYMELSSLRSEDTAVYYCATNYVGSIFDYWGQGTLVTVSS
VL: NIVMTQSPKSMSMSVGERVTLSCKASENVVSYVSWYQQKPAQSPKLLIYGASNRNTGVPDRFTGSGSATDFTLTISSVRAEDLADYHCGQSYNYPYTFGGGTRLEIKR
notes: also called Hu2B8 Hv1-f.1 + IgG1 Constant heavy chain with Chimeric 2B8 Kappa light chain
Regarding B9, in assay [1], the koff turned out to be 0.0016 s⁻¹ and the kon stood at 2.4e+06 M⁻¹ s⁻¹.

B10: Kappa Hu2B8_Kv3-15.1 / Heavy Hu2B8_Hv1-f.1 (antibody, human IgG1, kappa, V domains shown)
VH: EVQLVQSGAEVKKPGATVKISCKVSGYTFTTYWMHWVQQAPGKGLEWMGEINPTNGHTNYNEKFQGRVTITADTSTDTAYMELSSLRSEDTAVYYCATNYVGSIFDYWGQGTLVTVSS
VL: EIVMTQSPATLSVSPGERATLSCKASENVVSYVSWYQQKPGQAPRLLIYGASNRNTGIPARFSGSGSGTEFTLTISSLQSEDFAVYYCGQSYNYPYTFGQGTKLEIKR
notes: also called Hu2B8 Hv1-f.1 + IgG1 Constant heavy chain with Hu2B8 Kv3-15.1 + Kappa Constant light chain
Take B10: in assay [1], the koff was 0.0037 s⁻¹ and the kon worked out at 7.8e+06 M⁻¹ s⁻¹.

Usually koff stands for the rate constant with which the complex falls apart. The term kon denotes a measure of how fast the partners come together. In general, Kd refers to the concentration at which binding is half-saturated. Broadly, the IC50 is the concentration at which inhibition is half-maximal.

The record behind these values is patent US20140178935A1 (AVEO PHARMACEUTICALS, published 2014).
